Results published in patent US7510715.
Where two headings read alike, the source gives them in different places.

Key:
[1] = molecular target: human CCR5 on cells (CEM.NKR-CCR5 transfectants; PM1 T cells; PBMCs; macrophages) (human) (UniProt P51681); experiment: cell-based or functional assay
[2] = molecular target: human CD4 on PM1 cells (human) (UniProt P01730); experiment: flow cytometry, FITC-Leu 3a on PM1 cells after RANTES + MIP-1β (1 µg/mL each, 2 hours at 37° C.); isotype control subtracted
[3] = molecular target: human CD4 on PM1 cells (human) (UniProt P01730)
[4] = molecular target: human CD4 on PM1 cells (human) (UniProt P01730); experiment: flow cytometry, FITC-Leu 3a on PM1 cells, no treatment; isotype control subtracted
[5] = molecular target: human CCR5 on cells (CEM.NKR-CCR5 transfectants; PM1 T cells; PBMCs; macrophages) (human) (UniProt P51681); experiment: flow cytometry, FITC-2D7 on PM1 cells, no treatment; isotype control subtracted
[6] = molecular target: human CCR5 on cells (CEM.NKR-CCR5 transfectants; PM1 T cells; PBMCs; macrophages) (human) (UniProt P51681)
[7] = molecular target: human CCR5 on cells (CEM.NKR-CCR5 transfectants; PM1 T cells; PBMCs; macrophages) (human) (UniProt P51681); experiment: flow cytometry, FITC-2D7 on PM1 cells after RANTES + MIP-1β (1 µg/mL each, 2 hours at 37° C.); isotype control subtracted

recombinant Plasmodium falciparum cyclophilin (PfCyp19) (enzyme)
Inhibition, % of 12E1(JR-FL)/PM1 fusion, P falciparum cyclophilin at 10 µg/mL [1]: 0%

FITC-conjugated Leu 3a (anti-hCD4; Becton Dickinson) (antibody)
ΔMFC [2]: 109 ΔMFC | ΔMFC [3]: 105 ΔMFC | ΔMFC [4]: 112 ΔMFC

FITC-conjugated 2D7 (anti-CCR5; Pharmingen) (antibody)
ΔMFC [5]: 119 ΔMFC | ΔMFC [6]: 104 ΔMFC | ΔMFC [7]: 35 ΔMFC
